In test [1] the target is T1, Cynomolgous B7-H3 on cells (cynomolgus).
T1 construct: whole, on cells; also called cyno B7-H3; cyB7-H3
Description: FACS. The protocol:
(§1) Cells were harvested from flasks when approximately 80% confluent using Gibco® Cell Dissociation Buffer. Cells were washed once in PBS/1% FBS (FACS buffer) then resuspended at 2.5×10⁶ cells/mL in FACS buffer. 100 μL of cells/well were added to a round bottom 96-well plate. 10 μL of a 10× concentration of mAb/ADC (final concentrations are indicated the figures). Wells were washed twice with FACS buffer and resuspended in 50 μL of secondary Ab (AlexaFluor 488) diluted in FACS buffer. The plate was incubated at 4° C. for one hour and washed twice with FACS buffer. Cells were resuspended in 100 μL of PBS/1% formaldehyde and analyzed on a Becton Dickinson LSRII flow cytometer. Data was analyzed using WinList flow cytometry analysis software.
(§2) Nine huAb13 variants described in Examples 17 and 18 were generated and tested for binding to B7-H3 by FACS (according to methods described in Example 6).
A general note: In flow cytometry, cells or beads pass a laser one at a time.

Test [2] addresses T2, Human full length B7-H3 (human, UniProt Q5ZPR3 29-534).
T2 construct: on 3T12 transfectants, NCI-H1650 and other cells; also called huB7-H3; hu B7-H3
T2 sequence: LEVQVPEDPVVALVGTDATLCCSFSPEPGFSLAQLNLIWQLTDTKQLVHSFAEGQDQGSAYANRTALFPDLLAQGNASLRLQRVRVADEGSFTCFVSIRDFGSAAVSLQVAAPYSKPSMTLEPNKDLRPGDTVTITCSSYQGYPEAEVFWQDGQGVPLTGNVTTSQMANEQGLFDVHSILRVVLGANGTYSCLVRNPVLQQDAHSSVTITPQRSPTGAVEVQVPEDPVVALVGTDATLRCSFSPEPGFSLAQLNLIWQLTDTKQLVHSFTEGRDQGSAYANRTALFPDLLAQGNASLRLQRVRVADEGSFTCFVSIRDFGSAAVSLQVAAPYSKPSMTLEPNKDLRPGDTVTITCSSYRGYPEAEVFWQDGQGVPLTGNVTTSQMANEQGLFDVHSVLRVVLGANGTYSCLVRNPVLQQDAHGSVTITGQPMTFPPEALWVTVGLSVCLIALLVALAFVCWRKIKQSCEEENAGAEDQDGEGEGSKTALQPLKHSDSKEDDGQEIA
Nature of the test: FACS. The protocol:
as §1, §2

In test [3] the target is T3, hB7-H3 (ELISA antigen of Tables 17 and 20) (human, UniProt Q5ZPR3 29-466, limits assumed).
T3 sequence: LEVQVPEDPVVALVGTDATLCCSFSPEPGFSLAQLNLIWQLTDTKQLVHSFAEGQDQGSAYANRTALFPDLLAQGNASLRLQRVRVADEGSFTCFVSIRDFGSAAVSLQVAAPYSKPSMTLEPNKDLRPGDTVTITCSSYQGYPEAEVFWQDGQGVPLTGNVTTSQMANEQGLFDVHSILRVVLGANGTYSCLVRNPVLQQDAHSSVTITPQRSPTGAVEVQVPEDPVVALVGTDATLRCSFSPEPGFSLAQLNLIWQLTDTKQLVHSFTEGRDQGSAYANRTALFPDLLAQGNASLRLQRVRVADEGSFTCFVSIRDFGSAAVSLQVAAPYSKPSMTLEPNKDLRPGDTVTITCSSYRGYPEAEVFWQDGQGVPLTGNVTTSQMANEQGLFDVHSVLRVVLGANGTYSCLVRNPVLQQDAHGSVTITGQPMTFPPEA
Nature of the test: ELISA.

The target in test [4] is T3, hB7-H3 (ELISA antigen of Tables 17 and …). Nature of the test: ELISA; ELISA, human B7-H3; no DAR given, so unconjugated. Background: An ELISA detects its analyte on a solid surface through an enzyme-linked reagent.
Test [5] deals with T1, Cynomolgous B7-H3 on cells. Nature of the test: FACS, 3T12 transfectants.
Test [6] addresses T2, Human full length B7-H3. Nature of the test: FACS, 3T12 transfectants.
The target in test [7] is T3, hB7-H3 (ELISA antigen of Tables 17 and …). Nature of the test: ELISA. This is another data set of the same source.

Residue numbers refer to the chain shown, from its start.

The results in this text go back to patent US20200002421A1 (AbbVie / Abbott, published 2020).

B1: huAb13v1 (antibody, human IgG1, kappa, L234A L235A, V domains shown)
VH: EVQLQESGPGLVKPSETLSLTCAVTGYSITSGYSWHWIRQFPGNGLEWMGYIHSSGSTNYNPSLKSRISISRDTSKNQFFLKLSSVTAADTAVYYCAGYDDYFEYWGQGTTVTVSS
VL: DIQMTQSPSSLSASVGDRVTITCKASQNVGFNVAWYQQKPGKSPKALIYSASYRYSGVPSRFSGSGSGTDFTLTISSLQPEDFAEYFCQQYNWYPFTFGQGTKLEIKR
notes: Ig gamma-1 mutant / kappa
By EC50 is commonly meant the concentration giving half of the maximal effect. Molecule B1 registered a half-maximal effective concentration (EC50) in test [1] of 10 nM.

B2: huAb13v5 (antibody, V domains shown)
VH: B1 VH
VL: DIQMTQSPSSLSASVGDRVTITCKASQNVGFNVAWYQQKPGKAPKLLIYSASYRYSGVPSRFSGSGSGTDFTLTISSLQPEDFATYYCQQYNWYPFTFGQGTKLEIK
Take B2: the EC50 in test [1] came out at 10.6 nM; in test [2], 5.21 nM; in test [3], 0.19 nM.

B3: huAb13v6 (antibody, V domains shown)
VH: B1 VH
VL: B2 VL with Y87F
Take B3: the results for the EC50 in test [1], in test [2] and in test [3] were 12.9 nM, 5.83 nM and 0.14 nM, respectively.

B4: chAb13 (antibody, IgG1, V domains shown)
VH: DVQLQESGPDLVKPSQSLSLTCTVTGYSITSGYSWHWIRQFPGNKLEWMGYIHSSGSTNYNPSLKSRISINRDTSKNQFFLQLNSVTTEDTATYYCAGYDDYFEYWGQGTTLTVSS
VL: DIVMTQSQKFMSTSVGDRVSVTCKASQNVGFNVAWYQQKPGQSPKALIYSASYRYSGVPDRFTGSGSGTDFTLTISNVQSEDLAEYFCQQYNSYPFTFGSGTKLEIK
notes: chimeric, huIgG1/k
B4: the EC50 in test [1] was determined as 18.4 nM; in test [2], 6.27 nM; in test [4], 0.26 nM.

B5: huAb3v2.8 (antibody, V domains shown)
VH: EVQLVQSGAEVKKPGSSVKVSCKASGYTFSSYWMHWVRQAPGQGLEWIGLIHPISGSTNYNEMFKNRATLTVDRSTSTAYMELSSLRSEDTAVYYCAGGGRLYFDYWGQGTTVTVSS
VL: DIVMTQSPLSLPVTPGEPASISCRSSQSLVHSNRDTYLRWYLQKPGQSPQLLIYKVSNRFSGVPDRFSGSGSGTDFTLKISRVEAEDVGVYYCSQSTHVPYTFGGGTKVEIK
Take B5: the results for the 50% effective concentration (EC50) in test [5], in test [6] and in test [7] were 3.01 nM, 3.94 nM and 0.14 nM, respectively.
